Assay results: patent CN114437205A

Molecular target: SARS S-his (SARS)

B1: 抗体CT150 (antibody, V domains shown)
VH: QEQLVESGGGVVQPGRSLRLSCAASGFTFSSYAMHWVRQAPGEGLEWVALISYDGDNKYYADSVKGRFTISRDNSKTTLFLQMNSLRAEDTAVYYCARDRGSYFYGVDVWGQGATVTVSS
VL: DIQLTQSPSFLSASVGDRVTITCRASQDINSYLAWYQQKPGKAPKLLIYAASTLQSGVPSRFSGSGSGTEFTLTISSLQPEDFATYYCQQLNSYPIFTFGPGTKVDIK
In the case of B1, the EC50 is reported as 0.129 µg/mL.
